These results are taken from patent US20120207760A1.

Details in all cases: remark: other sources report otherwise
Test [1] concerns the target T1, recombinant homotrimeric HA, A/Egypt/3300-NAMRU3/08 H5N1 (Influenza A virus A/Egypt/3300-NAMRU3/08 (H5N1)). The experiment in a line: trimeric HA microarray, transfection set 3.
Test [2] has as its target T2, recombinant homotrimeric HA, A/Japan/305/57 H2N2 (Influenza A virus A/Japan/305/57 (H2N2)). The experiment in a line: trimeric HA microarray, transfection set 3.
Test [3] concerns the target T3, recombinant homotrimeric HA, A/Vietnam/1203/04 H5N1 (Influenza A virus A/Vietnam/1203/04 (H5N1)). Kind of test: trimeric HA microarray, transfection set 3.
The target of test [4] is T4, recombinant homotrimeric HA, A/Wisconsin/67/05 H3N2 (Influenza A virus A/Wisconsin/67/05 (H3N2)). Kind of test: trimeric HA microarray, transfection set 3.
The target in test [5] is T5, recombinant homotrimeric HA, A/common magpie/Hong Kong/5052/07 H5N1 (Influenza A virus A/common magpie/Hong Kong/5052/07 (H5N1)). Kind of test: trimeric HA microarray, transfection set 3.
Test [6] concerns the target recombinant homotrimeric HA, A/duck/Yangzhou/02/05 H8N4 (Influenza A virus A/duck/Yangzhou/02/2005 (H8N4)). The experiment in a line: trimeric HA microarray, transfection set 3.
Test [7] has as its target T6, recombinant homotrimeric HA, A/swine/Ontario/01911-2/99 H4N6 (Influenza A virus A/swine/Ontario/01911-2/99 (H4N6)). The experiment in a line: trimeric HA microarray, transfection set 3.
The target in test [8] is recombinant soluble homotrimeric HA of A/California/4/09 (H1N1) (Influenza A virus A/California/4/09 (H1N1)). Kind of test: microarray, BCC supernatant IgG, trimeric HA.
Test [9] addresses recombinant soluble homotrimeric HA of A/Japan/305/57 (H2N2) (Influenza A virus A/Japan/305/57 (H2N2)). The experiment in a line: microarray, BCC supernatant IgG, trimeric HA.
The target of test [10] is recombinant soluble homotrimeric HA of A/chicken/Vietnam/NCVD-016/08 (H5N1) (Influenza A virus A/chicken/Vietnam/NCVD-016/08 (H5N1)). Kind of test: microarray, BCC supernatant IgG, trimeric HA.
The target in test [11] is recombinant homotrimeric HA, A/California/4/09 H1N1 (Influenza A virus A/California/4/09 (H1N1)). Kind of test: trimeric HA microarray, transfection set 2.
Test [12] addresses T1, recombinant homotrimeric HA, …. Kind of test: trimeric HA microarray, transfection set 2.
In test [13] the target is T7, recombinant homotrimeric HA, A/Hong Kong/1073/99 H9N2 (Influenza A virus A/Hong Kong/1073/99 (H9N2)). The experiment in a line: trimeric HA microarray, transfection set 2.
Test [14] addresses T2, recombinant homotrimeric HA, …. The experiment in a line: trimeric HA microarray, transfection set 2.
Test [15] has as its target T8, recombinant homotrimeric HA, A/Solomon Islands/3/06 H1N1 (Influenza A virus A/Solomon Islands/3/06 (H1N1)). Kind of test: trimeric HA microarray, transfection set 2.
Test [16] deals with T9, recombinant homotrimeric HA, A/South Carolina/1/18 H1N1 (Influenza A virus A/South Carolina/1/18 (H1N1)). The experiment in a line: trimeric HA microarray, transfection set 2.
Test [17] concerns the target T3, recombinant homotrimeric HA, …. Kind of test: trimeric HA microarray, transfection set 2.
Test [18] concerns the target T4, recombinant homotrimeric HA, …. The experiment in a line: trimeric HA microarray, transfection set 2.
In test [19] the target is T10, recombinant homotrimeric HA, A/chicken/Vietnam/NCVD-016/08 H5N1 (Influenza A virus A/chicken/Vietnam/NCVD-016/08 (H5N1)). The experiment in a line: trimeric HA microarray, transfection set 2.
Test [20] deals with T5, recombinant homotrimeric HA, A/common …. The experiment in a line: trimeric HA microarray, transfection set 2.
The target of test [21] is recombinant homotrimeric HA, A/northern shoveler/California/HKWF115/07 (Influenza A virus A/northern shoveler/California/HKWF115/2007 (H6N1)). The experiment in a line: trimeric HA microarray, transfection set 2.
The target in test [22] is T6, recombinant homotrimeric HA, …. The experiment in a line: trimeric HA microarray, transfection set 2.
Test [23] concerns the target recombinant soluble homotrimeric HA of A/Wisconsin/67/05 (H3N2) (Influenza A virus A/Wisconsin/67/05 (H3N2)). The experiment in a line: microarray, BCC supernatant IgG, trimeric HA.
For test [24], the target named is T7, recombinant homotrimeric HA, A/Hong …. The experiment in a line: trimeric HA microarray, transfection set 3.
Test [25] has as its target T8, recombinant homotrimeric HA, A/Solomon …. Kind of test: trimeric HA microarray, transfection set 3.
The target of test [26] is T9, recombinant homotrimeric HA, A/South …. Kind of test: trimeric HA microarray, transfection set 3.
The target of test [27] is T10, recombinant homotrimeric HA, …. Kind of test: trimeric HA microarray, transfection set 3.
Test [28] has as its target recombinant soluble homotrimeric HA of A/Solomon Islands/3/06 (H1N1) (Influenza A virus A/Solomon Islands/3/06 (H1N1)). The experiment in a line: microarray, BCC supernatant IgG, trimeric HA.
Test [29] addresses recombinant soluble homotrimeric HA of A/duck/Yangzhou/02/05 (H8N4) (Influenza A virus A/duck/Yangzhou/02/2005 (H8N4)). The experiment in a line: microarray, BCC supernatant IgG, trimeric HA.

B1: TCN-531 (5091_H13) (antibody, V domains shown)
VH: EVQLVESGGDLVQPGRSLKLSCTGSGFTFGDYGVTWVRQAPGKGLEWVGFIRTRPWGGTADTAASVKGRFTISRDDSKSLAYLQMNSLKTEDTAVYYCCRDAPPNVEVASMTNWYFDLWGRGTLVTVSS
VL: DIQLTQSPSSLSASVGDRVTITCRASQGILNCLAWYQQKPGKVPNLLMYAASTLQSGVPSRFSGSGFGTDFTLTISSLQPEDVATYYCQTYGGVSTFGGGTKVEIR
Turning to B1, the Trimeric HA Binding RLU in test [1] was found to be 363 RLU; in [2], 489 RLU; in test [3] it was 2410 RLU; in test [4], 4160 RLU; in test [5], 37 RLU; in test [6], 3220 RLU. The Trimeric HA Binding RLU in [7] was found to be 296 RLU. Also, the figures for the Trimeric HA Binding: RLU in test [8], in [9] and in [10] were 22200 RLU, 410 RLU and 20800 RLU, respectively.

B2: TCN-522 (3212_I12) (antibody, V domains shown)
VH: QVQLQQWGAGLLKPSETLSLTCTVSGGSLTDYSWNWIRQPPGKGLEWIGDTLHNGYTNYNPSLRGRVSISIDTSKNQVSLRLTSVTAADTALYYCARGSGGYGGFDYFGKLRTWDFWGQGTLVTVSS
VL: DIQLTQSPSSLSASVGDRVTITCRASQGIRNDLGWYQQKPGNAPKRLIFGASSLQSGVPSRFSGSGSGTEFTLTISSLQPEDFATYYCLQHNSYPYTFGQGTKLEIK
On to B2, for which the Trimeric HA Binding RLU in test [11] turned out to be 37500 RLU; in test [12], 55400 RLU; in test [13], 11800 RLU; in test [14] it was 11900 RLU; in test [15], 17300 RLU; in test [16], 39600 RLU. In addition, the Trimeric HA Binding RLU in [17] was 48200 RLU; in test [18] it was 3350 RLU; in test [19] it was 49300 RLU; in test [20] it was 21400 RLU; in [21] it was 54400 RLU; in test [22], 1050 RLU. Moreover, the Trimeric HA Binding: RLU in test [23] came to 302 RLU.

B3: TCN-529 (5297_H01) (antibody, V domains shown)
VH: QITLRESGPTLVKPTQTLTLTCTFSGFSLSTNGVNVGWIRQPPGKALEWLALIYWDDDKRYSPSLKRRLTITKDTSKNQVVLTLTNMDPVDTATYYCAHRPDFYGDFEYWGPGTLVTVSS
VL: QSALTQPASVSGSPGQSITISCTGSSSDIGGYNYVSWYQQHPGKAPKLMIYDVNNRPSGVSNRFSGSKSGNTASLTISGLQTDDEADYYCGSYTGSPHYVFGTGTKVTVL
With B3, the Trimeric HA Binding RLU in test [24] was found to be 46 RLU; in [2], 45 RLU; in test [25], 43 RLU; in test [26] it was 158 RLU; in test [4], 2940 RLU; in test [27], 33 RLU. Also, the Trimeric HA Binding RLU in [6] turned out to be 48 RLU; in test [7], 45 RLU. Besides, the results for the Trimeric HA Binding: RLU in test [28] and in test [29] were 179 RLU and 771 RLU, respectively.
